Targets include NHERF4_4, Q86UT5; GRIP2_7, Q9C0E4; TJP2_1, Q9UDY2.
Test in all cases: holdup assay
Design in all cases: key: below the threshold = too weak to quantify, mostly under pKd 3.1 to 4
Common to all, as to settings: plain residues with an end cap or a label only (N-terminal biotin on a linker: ado-ado)

The term pKd denotes the Kd on a negative log10 scale, so that one unit is a factor of ten.

Sequence of GRIP2_7, Q9C0E4 (Q9C0E4 934-1023): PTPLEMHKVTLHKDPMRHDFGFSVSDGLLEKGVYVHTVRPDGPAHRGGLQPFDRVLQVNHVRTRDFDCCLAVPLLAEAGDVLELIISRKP
Sequence of TJP2_1, Q9UDY2 (Q9UDY2 24-128): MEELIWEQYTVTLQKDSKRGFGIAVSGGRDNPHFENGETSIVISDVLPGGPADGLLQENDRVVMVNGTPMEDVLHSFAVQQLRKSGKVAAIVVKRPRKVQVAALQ
Sequence of NHERF4_4, Q86UT5 (Q86UT5 464-550): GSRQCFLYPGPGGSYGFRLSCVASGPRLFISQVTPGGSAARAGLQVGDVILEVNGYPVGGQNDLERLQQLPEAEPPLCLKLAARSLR

In the case of EYRKDNKVAA [LSM14A, Q8ND56;Q8ND56-2], the pKd result is on record as “below the threshold” with NHERF4_4, Q86UT5 and “below the threshold” with GRIP2_7, Q9C0E4.
Turning to VISERNSTTV [C3AR1, Q16581], the pKd entry is given as “below the threshold” with NHERF4_4, Q86UT5; “below the threshold” with GRIP2_7, Q9C0E4; “below the threshold” with TJP2_1, Q9UDY2.
Regarding PDGEMMEVLI [AMOTL1, Q8IY63], the pKd entry in the assay with NHERF4_4, Q86UT5 is listed as “below the threshold”; in the assay with GRIP2_7, Q9C0E4 it was “below the threshold”; in the assay with TJP2_1, Q9UDY2, “below the threshold”.
LRYARPADAL [PPP1R3G, B7ZBB8]: the pKd entry in the assay with NHERF4_4, Q86UT5 is on record as “below the threshold”; in the assay with GRIP2_7, Q9C0E4 it was “below the threshold”; with TJP2_1, Q9UDY2, “below the threshold”.
Consider SKSLERATQL [COMMD3, Q9UBI1], for which the pKd result in the assay with NHERF4_4, Q86UT5 was “below the threshold”; in the assay with GRIP2_7, Q9C0E4, 3.51; with TJP2_1, Q9UDY2, 3.72.
GCQGETEDVL [PTH2R, P49190]: the pKd entry with NHERF4_4, Q86UT5 is listed as “below the threshold”; in the assay with GRIP2_7, Q9C0E4, “below the threshold”; with TJP2_1, Q9UDY2 it was “below the threshold”.
On to SRPRPDDLEI [GJA1, P17302], for which the pKd result with NHERF4_4, Q86UT5 is on record as “below the threshold”; with GRIP2_7, Q9C0E4, “below the threshold”; with TJP2_1, Q9UDY2, “below the threshold”.
For the molecule TMQMSLKDLL [GLA, P06280], the pKd entry with NHERF4_4, Q86UT5 was “below the threshold”; with GRIP2_7, Q9C0E4, “below the threshold”; in the assay with TJP2_1, Q9UDY2 it was “below the threshold”.
In the case of LETREPTNTL [GRIP1, Q9Y3R0], the negative-log Kd (pKd) entry is “below the threshold” with NHERF4_4, Q86UT5; “below the threshold” with GRIP2_7, Q9C0E4; “below the threshold” in the assay with TJP2_1, Q9UDY2.
Consider QELLEYETTV [XKR7, Q5GH72], for which the pKd entry with NHERF4_4, Q86UT5 was “below the threshold”; with GRIP2_7, Q9C0E4, “below the threshold”; with TJP2_1, Q9UDY2 it was “below the threshold”.
Take PMESGICTIV [TTC24, A2A3L6]: the pKd result with NHERF4_4, Q86UT5 was “below the threshold”; in the assay with GRIP2_7, Q9C0E4, “below the threshold”; in the assay with TJP2_1, Q9UDY2, 3.81.
REVVMRVTTV [MARCHF9, Q86YJ5]: the pKd entry with NHERF4_4, Q86UT5 is “below the threshold”; in the assay with GRIP2_7, Q9C0E4, “below the threshold”; with TJP2_1, Q9UDY2 it was 3.92.
Regarding WRSKRTDTLL [RAMP3, O60896], the pKd entry with NHERF4_4, Q86UT5 is on record as “below the threshold”; in the assay with GRIP2_7, Q9C0E4 it was “below the threshold”; with TJP2_1, Q9UDY2, “below the threshold”.
Consider FEEEAEEEVA [TUBB4B, P68371], for which the pKd result with NHERF4_4, Q86UT5 was “below the threshold”; with GRIP2_7, Q9C0E4, “below the threshold”; with TJP2_1, Q9UDY2, “below the threshold”.
With GDHLDRRVVL [VAC14, Q08AM6], the pKd with NHERF4_4, Q86UT5 was 3.78; with GRIP2_7, Q9C0E4, 3.53; with TJP2_1, Q9UDY2 it was “below the threshold”.
For the molecule RALRASESGI [ADGRE5, P48960], the pKd result with NHERF4_4, Q86UT5 is given as “below the threshold”; with GRIP2_7, Q9C0E4, “below the threshold”; with TJP2_1, Q9UDY2 it was “below the threshold”.
